Tests used:
[1] = biological target: human PD-L1 (human) (UniProt Q9NZQ7); assay: flow cytometry, CHO cells expressing huPD-L1
[2] = biological target: human CTLA-4 (human) (UniProt P16410); assay: flow cytometry, CHO cells expressing huCTLA-4
[3] = biological target: CD28 (human) (UniProt P10747); assay: flow cytometry, Jurkat/IL2 reporter cells (CD28)
[4] = biological target: human PD-L1 (human) (UniProt Q9NZQ7); assay: flow cytometry; PD-L1 MFI over CD28 MFI of the same protein
[5] = biological target: human PD-L1 (human) (UniProt Q9NZQ7); assay: flow cytometry, CHO/huPD-L1 cells; vs WT CD80 ECD-Fc (Abcam)
[6] = biological target: human CTLA-4 (human) (UniProt P16410); assay: flow cytometry, CHO/huCTLA-4 cells; vs WT CD80 ECD-Fc (Abcam)
[7] = biological target: CD28 (human) (UniProt P10747); assay: flow cytometry, Jurkat cells (CD28); vs WT CD80 ECD-Fc (Abcam)
[8] = biological target: CD28 (human) (UniProt P10747); assay: flow cytometry, Jurkat cells (CD28)
[9] = biological target: human CTLA-4 (human) (UniProt P16410); assay: flow cytometry, CHO cells stably expressing CTLA4
[10] = biological target: human PD-L1 (human) (UniProt Q9NZQ7); assay: flow cytometry, CHO cells stably expressing PD-L1
[11] = biological target: human PD-L1 (human) (UniProt Q9NZQ7); assay: flow cytometry, MFI on PD-L1 cells over MFI on CD28 cells

Sequence of human PD-L1 (human) (Q9NZQ7 19-290): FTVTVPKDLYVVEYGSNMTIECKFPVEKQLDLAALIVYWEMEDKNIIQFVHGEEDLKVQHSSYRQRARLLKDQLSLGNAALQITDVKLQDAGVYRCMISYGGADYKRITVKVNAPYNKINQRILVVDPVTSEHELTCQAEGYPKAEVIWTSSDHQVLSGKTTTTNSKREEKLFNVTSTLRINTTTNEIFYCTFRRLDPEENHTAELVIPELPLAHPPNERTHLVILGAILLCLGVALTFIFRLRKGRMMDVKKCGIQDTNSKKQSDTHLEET
Sequence of human CTLA-4 (human) (P16410 36-223): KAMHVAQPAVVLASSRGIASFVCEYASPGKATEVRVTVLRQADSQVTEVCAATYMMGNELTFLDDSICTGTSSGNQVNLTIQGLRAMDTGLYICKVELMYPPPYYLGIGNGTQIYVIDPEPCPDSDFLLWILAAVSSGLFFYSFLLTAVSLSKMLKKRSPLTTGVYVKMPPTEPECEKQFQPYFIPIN

Row | Binder | MFI at 33.3 nM [1] | MFI at 33.3 nM [2] | MFI at 33.3 nM [3] | Ratio of PDL1:CD28 [4] | Fold change to WT CD80 [5] | Fold change to WT CD80 [6] | Fold change to WT CD80 [7] | Fold change to WT CD80 [8] | MFI at 33.3 nM [8] | Fold change to WT CD80 [9] | MFI at 33.3 nM [9] | Fold change to WT CD80 [10] | MFI at 33.3 nM [10] | Ratio of PDL1:CD28 [11]
1 | variant CD80 IgV-Fc E35D/D46V/M47L/L85Q (Fc fusion) VIHVTKEVKEVATLSCGHNVSVEELAQTRIYWQKDKKMVLTMMSGVLNIWPEYKNRTIFDITNNLSIVILALRPSDEGTYECVVQKYEKDAFKREHLAEVTLSVKAD | 7520 MFI | 38200 MFI | 268 MFI | 28.1 | 58.8 fold | 0.9 fold | 0.4 fold | – | – | – | – | – | – | –
2 | variant CD80 IgV-Fc A26E/M47L/A71G/D90G (Fc fusion) VIHVTKEVKEVATLSCGHNVSVEELEQTRIYWQKEKKMVLTMMSGDLNIWPEYKNRTIFDITNNLSIVILGLRPSDEGTYECVVLKYEKGAFKREHLAEVTLSVKAD | – | – | – | – | – | – | – | 44.5 fold | 1960 MFI | 16.2 fold | 22000 MFI | 303 fold | 13200 MFI | 6.8
3 | variant CD80 IgV-Fc A26E/V68M/A71G/D90G (Fc fusion) VIHVTKEVKEVATLSCGHNVSVEELEQTRIYWQKEKKMVLTMMSGDMNIWPEYKNRTIFDITNNLSIMILGLRPSDEGTYECVVLKYEKGAFKREHLAEVTLSVKAD | – | – | – | – | – | – | – | 27.2 fold | 1190 MFI | 6.4 fold | 8670 MFI | 73.3 fold | 3200 MFI | 2.7
4 | variant CD80 IgV-Fc E35D/N48K (Fc fusion) VIHVTKEVKEVATLSCGHNVSVEELAQTRIYWQKDKKMVLTMMSGDMKIWPEYKNRTIFDITNNLSIVILALRPSDEGTYECVVLKYEKDAFKREHLAEVTLSVKAD | 6540 MFI | 41300 MFI | 194 MFI | 33.7 | 51.1 fold | 1 fold | 0.3 fold | – | – | – | – | – | – | –
5 | variant CD80 IgV-Fc A26E/E35D/V68M/D90G (Fc fusion) VIHVTKEVKEVATLSCGHNVSVEELEQTRIYWQKDKKMVLTMMSGDMNIWPEYKNRTIFDITNNLSIMILALRPSDEGTYECVVLKYEKGAFKREHLAEVTLSVKAD | – | – | – | – | – | – | – | 38.3 fold | 1680 MFI | 10.2 fold | 13900 MFI | 160 fold | 6990 MFI | 4.2
6 | variant CD80 IgV-Fc E35D/D46V/M47L/V68M/L85Q (Fc fusion) VIHVTKEVKEVATLSCGHNVSVEELAQTRIYWQKDKKMVLTMMSGVLNIWPEYKNRTIFDITNNLSIMILALRPSDEGTYECVVQKYEKDAFKREHLAEVTLSVKAD | 28400 MFI | 26200 MFI | 464 MFI | 61.2 | 222 fold | 0.6 fold | 0.7 fold | – | – | – | – | – | – | –
7 | variant CD80 IgV-Fc E35D/M47L/A71G/D90G (Fc fusion) VIHVTKEVKEVATLSCGHNVSVEELAQTRIYWQKDKKMVLTMMSGDLNIWPEYKNRTIFDITNNLSIVILGLRPSDEGTYECVVLKYEKGAFKREHLAEVTLSVKAD | – | – | – | – | – | – | – | 30.3 fold | 1330 MFI | 15.4 fold | 20900 MFI | 277 fold | 12100 MFI | 9.1
8 | variant CD80 IgV-Fc A26E/E35D/M47L/D90G (Fc fusion) VIHVTKEVKEVATLSCGHNVSVEELEQTRIYWQKDKKMVLTMMSGDLNIWPEYKNRTIFDITNNLSIVILALRPSDEGTYECVVLKYEKGAFKREHLAEVTLSVKAD | – | – | – | – | – | – | – | 35.3 fold | 1550 MFI | 13.4 fold | 18200 MFI | 220 fold | 9580 MFI | 6.2
9 | variant CD80 IgV-Fc H18Y/A26E/M47L/D90G (Fc fusion) VIHVTKEVKEVATLSCGYNVSVEELEQTRIYWQKEKKMVLTMMSGDLNIWPEYKNRTIFDITNNLSIVILALRPSDEGTYECVVLKYEKGAFKREHLAEVTLSVKAD | – | – | – | – | – | – | – | 65.1 fold | 2860 MFI | 17.3 fold | 23500 MFI | 205 fold | 8930 MFI | 3.1
10 | variant CD80 IgV-Fc E35D/N48K/K89N (Fc fusion) VIHVTKEVKEVATLSCGHNVSVEELAQTRIYWQKDKKMVLTMMSGDMKIWPEYKNRTIFDITNNLSIVILALRPSDEGTYECVVLKYENDAFKREHLAEVTLSVKAD | 5770 MFI | 34700 MFI | 411 MFI | 14 | 45 fold | 0.9 fold | 0.6 fold | – | – | – | – | – | – | –

Other lines, results leading:

Row | MFI at 33.3 nM [1] | MFI at 33.3 nM [2] | MFI at 33.3 nM [3] | Ratio of PDL1:CD28 [4] | Fold change to WT CD80 [5] | Fold change to WT CD80 [6] | Fold change to WT CD80 [7] | Fold change to WT CD80 [8] | MFI at 33.3 nM [8] | Fold change to WT CD80 [9] | MFI at 33.3 nM [9] | Fold change to WT CD80 [10] | MFI at 33.3 nM [10] | Ratio of PDL1:CD28 [11] | Binder
11 | – | – | – | – | – | – | – | 86.4 fold | 3800 MFI | 14 fold | 19000 MFI | 499 fold | 21800 MFI | 5.7 | variant CD80 IgV-Fc H18Y/M47L/V68M/D90G (Fc fusion) VIHVTKEVKEVATLSCGYNVSVEELAQTRIYWQKEKKMVLTMMSGDLNIWPEYKNRTIFDITNNLSIMILALRPSDEGTYECVVLKYEKGAFKREHLAEVTLSVKAD
12 | – | – | – | – | – | – | – | 82.2 fold | 3610 MFI | 12.8 fold | 17400 MFI | 714 fold | 31100 MFI | 8.6 | variant CD80 IgV-Fc M47L/V68M/A71G/D90G (Fc fusion) VIHVTKEVKEVATLSCGHNVSVEELAQTRIYWQKEKKMVLTMMSGDLNIWPEYKNRTIFDITNNLSIMILGLRPSDEGTYECVVLKYEKGAFKREHLAEVTLSVKAD
13 | – | – | – | – | – | – | – | 77.8 fold | 3410 MFI | 16.4 fold | 22300 MFI | 703 fold | 30700 MFI | 9 | variant CD80 IgV-Fc H18Y/V68M/A71G/D90G (Fc fusion) VIHVTKEVKEVATLSCGYNVSVEELAQTRIYWQKEKKMVLTMMSGDMNIWPEYKNRTIFDITNNLSIMILGLRPSDEGTYECVVLKYEKGAFKREHLAEVTLSVKAD
14 | – | – | – | – | – | – | – | 54.5 fold | 2390 MFI | 19 fold | 25800 MFI | 295 fold | 12800 MFI | 5.4 | variant CD80 IgV-Fc H18Y/A26E/V68M/D90G (Fc fusion) VIHVTKEVKEVATLSCGYNVSVEELEQTRIYWQKEKKMVLTMMSGDMNIWPEYKNRTIFDITNNLSIMILALRPSDEGTYECVVLKYEKGAFKREHLAEVTLSVKAD
15 | – | – | – | – | – | – | – | 2.3 fold | 99.4 MFI | 8.3 fold | 11300 MFI | 158 fold | 6870 MFI | 69.1 | variant CD80 IgV-Fc H18Y/A26E/V68M/A71G (Fc fusion) VIHVTKEVKEVATLSCGYNVSVEELEQTRIYWQKEKKMVLTMMSGDMNIWPEYKNRTIFDITNNLSIMILGLRPSDEGTYECVVLKYEKDAFKREHLAEVTLSVKAD
16 | 2370 MFI | 42100 MFI | 366 MFI | 6.5 | 18.5 fold | 1 fold | 0.5 fold | – | – | – | – | – | – | – | variant CD80 IgV-Fc M47V/N48K/K89N (Fc fusion) VIHVTKEVKEVATLSCGHNVSVEELAQTRIYWQKEKKMVLTMMSGDVKIWPEYKNRTIFDITNNLSIVILALRPSDEGTYECVVLKYENDAFKREHLAEVTLSVKAD

— US20220177587A1, “METHODS AND USES OF VARIANT CD80 FUSION PROTEINS AND RELATED CONSTRUCTS” (Alpine Immune Sciences, Inc., priority 2018, published 2022)
